Here are results for 51 molecules from US20170137818, “APTAMER INHIBITING BIOLOGICAL ACTIVITY OF AUTOTAXIN BY BINDING WITH AUTOTAXIN, AND USE THEREOF” (RIBOMIC INC., published 2017).

One data set concerns the target autotaxin (ENPP2/NPP2) (Homo sapiens, UniProt Q13822 Q13822:36-863). Briefly: inhibition; NPP2 assay, 37 C.
Data set [1] deals with T1, autotaxin (endogenous, human pooled serum) (Homo sapiens, UniProt Q13822 Q13822:36-863). Briefly: inhibition; LPA production in serum, 0.10 uM.
The target of data set [2] is T1, autotaxin (endogenous, human pooled …). Briefly: inhibition; LPA production in serum, 0.025 uM.
Data set [3] has the same target. Briefly: inhibition; LPA production in serum, 5.0 uM.

B1: SEQ 14 aptamer (ssDNA)
DNA: GGGACGGAACCAGAATACTTTTGGTCTCCC
As usually defined, the IC50 is the concentration that gives 50% inhibition. Low values mean inhibition by little substance, high ones a need for much substance. In the data set with autotaxin (ENPP2/NPP2), B1 displayed an IC50 of 42 nM.

B2: SEQ 6 aptamer (ssDNA)
DNA: GTGGTCTAGCTGTACTCGGAACCGTACTCAACGGTCAGTACCTTTGCGCCGCAGCAAGCCACAGTCAACGAGCTA
B2 showed an IC50 with autotaxin (ENPP2/NPP2) of 20 nM.

B3: SEQ 13 aptamer (ssDNA)
DNA: TGGACGGAACCAGAATACTTTTGGTCTCCA
Consider B3, for which, in the data set with autotaxin (ENPP2/NPP2), it took 110 nM to reach half-maximal inhibition (IC50).

B4: SEQ 11 aptamer (ssDNA)
DNA: GTACTCATGGACGGAACCAGAATACTTTTGGTCTCCATTGAGTAC
The molecule B4 gave an IC50 in the data set with autotaxin (ENPP2/NPP2) of 12 nM.

B5: SEQ 27 aptamer (ssDNA)
DNA: TACGCTCGGAACCGAGGCAATTGGTCAGCGTG
As for B5, in the data set with autotaxin (ENPP2/NPP2), the IC50 came out at 24 nM.

B6: SEQ 10 aptamer (ssDNA)
DNA: GTGGTCTAGCTGTACTCGCCGGAACCGTACTATGGTCGCGTTGTATGACGCTTGTATCCACAGTCAACGAGCTA
In the data set with autotaxin (ENPP2/NPP2), B6 registered a half-maximal inhibitory concentration (IC50) of 21 nM.

B7: SEQ 23 aptamer (ssDNA)
DNA: ACACTCACAGGCGCTGGCACGGACCGGAACCGGGACGCTCGGTCGACCGTGCATGGCCGCTAGT
In turn, B7 registered an IC50 with autotaxin (ENPP2/NPP2) of 75 nM.

B8: SEQ 29 aptamer (ssDNA)
DNA: GCTGGCCGGAACCGTGCATATGGTCGCCAGC
B8 yielded an IC50 with autotaxin (ENPP2/NPP2) of 11 nM.

B9: SEQ 24 aptamer (ssDNA)
DNA: ACACTCACAGGCGCTGGCGAGTCGGAACCGAGCCGATTGGTCACTCGCGTGCATGGCCGCTAGT
The molecule B9 yielded an IC50 with autotaxin (ENPP2/NPP2) of 32 nM.

B10: SEQ 20 aptamer (ssDNA)
DNA: ACACTCACAGGCGCTGGGGTACGCTCGGAACCGAGGCAATTGGTCAGCGTGCATGGCCGCTAGT
B10: the IC50 with autotaxin (ENPP2/NPP2) was 37 nM.

B11: SEQ 9 aptamer (ssDNA)
DNA: GTGGTCTAGCTGTACTCAGGCCGGAACCGGTGAAATTGGTCGCCTAATAAGCGAAATCCACAGTCAACGAGCTA
For B11, it took 36 nM to reach half-maximal inhibition with autotaxin (ENPP2/NPP2) (IC50).

B12: 12(61) (ssDNA)
DNA: CCTGGACGGAACCAGAATACTTTTGGTCTCCAGG
modifications: 2'-OMe C7,G9,A14,G15,A19,C20,A32,G33,G34; P-methyl C12 (between C12 and C13); 5' idT, 3' idT
In data set [1], B12 came in with an activity of 91 % inhibition.

B13: 12(135) (ssDNA)
DNA: CCTGGACGGAACCAGAATACTTTTGGTCTCCAGG
modifications: 2'-OMe C7,G9,A14,G15,A19,C20,A32,G33,G34; P-methyl C1,G5,G8,C12,A16,T21,T23,C28,C30,C31,G34; 5' idT, 3' idT
As to B13, the activity in data set [2] stood at 50 % inhibition.

B14: 12(131) (ssDNA)
DNA: CCTGGACGGAACCAGAATACTTTTGGTCTCCAGG
modifications: 2'-OMe C7,G9,A14,G15,A19,C20,A32,G33,G34; P-methyl G8; 5' 40 kDa PEG via ssH linker, 3' idT
In data set [1], B14 returned an activity of 91 % inhibition.

B15: 12(118) (ssDNA)
DNA: CCTGGACGGAACCAGAATACTTTTGGTCTCCAGG
modifications: 2'-OMe C7,G9,A14,G15,A19,C20,A32,G33,G34; P-methyl G8,C12; 5' idT, 3' idT
In turn, B15 registered an activity in data set [1] of 98 % inhibition.

B16: 12(23) (ssDNA)
DNA: CCTGGACGGAACCAGAATACTTTTGGTCTCCAGG
modifications: 5' 40 kDa PEG (GL2-400GS2) via ssH linker, 3' idT
Take B16: the activity in data set [3] was determined as 90 % inhibition.

B17: 12(35) (ssDNA)
DNA: CCTGGACGGAACCAGAATACTTTTGGTCTCCAGG
modifications: 2'-OMe G4
Turning to B17, the activity in data set [3] stood at 82 % inhibition.

B18: 12(92) (ssDNA)
DNA: CCTGGACGGAACCAGAATACTTTTGGTCTCCAGG
modifications: 2'-OMe C7,G9,A14,G15,A19,C20,A32,G33,G34; P-methyl G8; 5' idT, 3' idT
Consider B18, for which the activity in data set [1] turned out to be 91 % inhibition.

B19: 12(26) (ssDNA)
DNA: CCTGGACGGAACCAGAATACTTTTGGTCTCCAGG
modifications: 2'-OMe C28
For the molecule B19, in data set [3], the activity is 35 % inhibition.

B20: 12(30) (ssDNA)
DNA: CCTGGACGGAACCAGAATACTTTTGGTCTCCAGG
modifications: 2'-OMe G25
In data set [3], B20 registered an activity of 75 % inhibition.

B21: 12(38) (ssDNA)
DNA: CCTGGACGGAACCAGAATACTTTTGGTCTCCAGG
modifications: 2'-OMe C31
As for B21, the activity in data set [3] came out at 83 % inhibition.

B22: 12(33) (ssDNA)
DNA: CCTGGACGGAACCAGAATACTTTTGGTCTCCAGG
modifications: 2'-OMe T24
As for B22, the activity in data set [3] was determined as 62 % inhibition.

B23: 12(27) (ssDNA)
DNA: CCTGGACGGAACCAGAATACTTTTGGTCTCCAGG
modifications: 2'-OMe A16
B23 had an activity in data set [3] of 86 % inhibition.

B24: 12(22) (ssDNA)
DNA: CCTGGACGGAACCAGAATACTTTTGGTCTCCAGG
modifications: 5' idT, 3' idT
For B24, in data set [3], the activity is 91 % inhibition.

B25: 12(28) (ssDNA)
DNA: CCTGGACGGAACCAGAATACTTTTGGTCTCCAGG
modifications: 2'-OMe T22
In data set [3], B25 had an activity of 64 % inhibition.

B26: 12(25) (ssDNA)
DNA: CCTGGACGGAACCAGAATACTTTTGGTCTCCAGG
modifications: 2'-OMe C1,C2,T3,G4,G5,C7,G9,C12,C13,A14,G15,T18,A19,C20,A32,G33,G34; 5' idT, 3' idT
For the molecule B26, the activity in data set [3] amounted to 84 % inhibition.

B27: 12(31) (ssDNA)
DNA: CCTGGACGGAACCAGAATACTTTTGGTCTCCAGG
modifications: 2'-OMe C12
Take B27: the activity in data set [3] amounted to 87 % inhibition.

B28: SEQ 12 aptamer (ssDNA)
DNA: CCTGGACGGAACCAGAATACTTTTGGTCTCCAGG
As for B28, in the data set with autotaxin (ENPP2/NPP2), the IC50 stood at 12 nM.

B29: 12(37) (ssDNA)
DNA: CCTGGACGGAACCAGAATACTTTTGGTCTCCAGG
modifications: 2'-OMe C30
In data set [3], B29 returned an activity of 85 % inhibition.

B30: 12(34) (ssDNA)
DNA: CCTGGACGGAACCAGAATACTTTTGGTCTCCAGG
modifications: 2'-OMe T23
Take B30: in data set [3], the activity is 55 % inhibition.

B31: 12(105) (ssDNA)
DNA: CCTGGACGGAACCAGAATACTTTTGGTCTCCAGG
modifications: 2'-OMe C7,G9,A14,G15,A19,C20,A32,G33,G34; PS between G9 and A10; 5' idT, 3' idT
B31 came in with an activity in data set [1] of 25 % inhibition.

B32: 12(119) (ssDNA)
DNA: CCTGGACGGAACCAGAATACTTTTGGTCTCCAGG
modifications: 2'-OMe C7,G9,A14,G15,A19,C20,A32,G33,G34; P-methyl G8,C12,C28; 5' idT, 3' idT
In the case of B32, the activity in data set [1] was determined as 97 % inhibition.

B33: 12(133) (ssDNA)
DNA: CCTGGACGGAACCAGAATACTTTTGGTCTCCAGG
modifications: 2'-OMe C7,G9,A14,G15,A19,C20,A32,G33,G34; P-methyl G8,C12,C28; 5' 40 kDa PEG via ssH linker, 3' idT
As to B33, in data set [2], the activity was 90 % inhibition.

B34: 12(97) (ssDNA)
DNA: CCTGGACGGAACCAGAATACTTTTGGTCTCCAGG
modifications: 2'-OMe C7,G9,A14,G15,A19,C20,A32,G33,G34; P-methyl T27; 5' idT, 3' idT
B34 had an activity in data set [1] of 7 % inhibition.

B35: 12(29) (ssDNA)
DNA: CCTGGACGGAACCAGAATACTTTTGGTCTCCAGG
modifications: 2'-OMe G26
With B35, in data set [3], the activity was found to be 84 % inhibition.

B36: 12(40) (ssDNA)
DNA: CCTGGACGGAACCAGAATACTTTTGGTCTCCAGG
modifications: 2'-OMe C2
Turning to B36, the activity in data set [3] was 84 % inhibition.

B37: 12(41) (ssDNA)
DNA: CCTGGACGGAACCAGAATACTTTTGGTCTCCAGG
modifications: 2'-OMe C1
Molecule B37 registered an activity in data set [3] of 85 % inhibition.

B38: 12(77) (ssDNA)
DNA: CCTGGACGGAACCAGAATACTTTTGGTCTCCAGG
modifications: 2'-OMe C7,G9,A14,G15,A19,C20,A32,G33,G34; PS between G8 and G9; 5' idT, 3' idT
Regarding B38, the activity in data set [1] was found to be 88 % inhibition.

B39: 12(36) (ssDNA)
DNA: CCTGGACGGAACCAGAATACTTTTGGTCTCCAGG
modifications: 2'-OMe G5
Turning to B39, in data set [3], the activity came out at 84 % inhibition.

B40: 12(39) (ssDNA)
DNA: CCTGGACGGAACCAGAATACTTTTGGTCTCCAGG
modifications: 2'-OMe T3
In data set [3], B40 showed an activity of 85 % inhibition.

B41: 12(24) (ssDNA)
DNA: CCTGGACGGAACCAGAATACTTTTGGTCTCCAGG
modifications: 2'-OMe C7,G9,A14,G15,A19,C20,A32,G33,G34; 5' idT, 3' idT
Molecule B41 displayed an activity in data set [3] of 96 % inhibition.

B42: 12(139) (ssDNA)
DNA: CCTGGACGGAACCAGAATACTTTTGGTCTCCAGG
modifications: 2'-OMe C7,G9,A14,G15,A19,C20,A32,G33,G34; P-methyl C1,G5,G8,C12,A16,A19,T21,T23,C28,C30,C31; 5' idT, 3' idT
Regarding B42, in data set [2], the activity turned out to be 71 % inhibition.

B43: 12(32) (ssDNA)
DNA: CCTGGACGGAACCAGAATACTTTTGGTCTCCAGG
modifications: 2'-OMe C13
In data set [3], B43 returned an activity of 85 % inhibition.

B44: 12(132) (ssDNA)
DNA: CCTGGACGGAACCAGAATACTTTTGGTCTCCAGG
modifications: 2'-OMe C7,G9,A14,G15,A19,C20,A32,G33,G34; P-methyl C1,G5,G8,C12,A16,T21,T23,C28,C30,C31; 5' idT, 3' idT
Consider B44, for which, in data set [2], the activity was determined as 59 % inhibition.

B45: SEQ 5 aptamer (ssDNA)
DNA: GTGGTCTAGCTGTACTCATGGACGGAACCAGAATACTTTTGGTCTCCATTGAGTACGCCACAGTCAACGAGCTA
B45: the IC50 in the data set with autotaxin (ENPP2/NPP2) was 11 nM.

B46: SEQ 21 aptamer (ssDNA)
DNA: ACACTCACAGGCGCTGGCCACCACTGCACCGGAACCGCGAATGTGGTCGTGCATGGCCGCTAGT
As for B46, the IC50 with autotaxin (ENPP2/NPP2) worked out at 28 nM.

B47: SEQ 4 aptamer (ssDNA)
DNA: GTGGTCTAGCTGTACTCTCCGGAACCAGAGCAATTTGGTCGAGCGCTATCGGATGGTCCACAGTCAACGAGCTA
As to B47, the IC50 with autotaxin (ENPP2/NPP2) was 16 nM.

B48: SEQ 22 aptamer (ssDNA)
DNA: ACACTCACAGGCGCTGGCCGGAACCGTGCATATGGTCGCCAGCACATCGTGCATGGCCGCTAGT
The molecule B48 gave an IC50 with autotaxin (ENPP2/NPP2) of 30 nM.

B49: SEQ 25 aptamer (ssDNA)
DNA: ACACTCACAGGCGCTGGCGACGTCGGAACCGTGTACCATGGTCACGTCGTGCATGGCCGCTAGT
As for B49, in the data set with autotaxin (ENPP2/NPP2), the IC50 came to 31 nM.

B50: SEQ 26 aptamer (ssDNA)
DNA: CGCTGGGGTACGCTCGGAACCGAGGCAATTGGTCAGCG
In the data set with autotaxin (ENPP2/NPP2), B50 yielded an IC50 of 440 nM.

B51: SEQ 16 aptamer (ssDNA)
DNA: CTGGACGGAACCAGAATACTTTTGGTCTCCAG
In the data set with autotaxin (ENPP2/NPP2), B51 displayed an IC50 of 18 nM.
